Data: patent US20250018038A1 (UNIVERSITY OF CHICAGO, published 2025)
Residue numbers refer to the chain shown, from its start.

Legend:
Bor-N = molecular target: T1, Bor-N (Biotinylated Avi tag, held on neutravidin; not in the letters); test: single point protein ELISA, 50 nM immobilised target
T1 construct: also called Bor N: 20-88; Borealin N-terminal domain; not shown: Avi tag, and any purification tag or linker
T1 chain: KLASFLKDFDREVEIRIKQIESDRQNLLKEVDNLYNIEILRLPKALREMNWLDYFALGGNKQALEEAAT
Protocol: (§1) To rapidly reconfirm the binding and specificity of the obtained Fabs after reformatting into the expression vectors single-point Fab ELISA was performed (FIG. 2-3). Briefly, 50 nM Avi-tagged targets were immobilized on the prepared NAV-coated and blocked with 0.5% BSA in PBS 96-well ELISA plates. The target coated plates were washed with appropriate buffer (TBST or PBST) and were incubated with 200 nM Fab for 20 minutes and then washed. The washed plates were incubated with protein L conjugated with HRP (1:5000 diluted in TBST) for 30 minutes. Plates were washed and the reaction was developed using the TMB chromogenic substrate (Thermofisher) and subsequently quenched with 1M HCl. Absorbance was read at 450 nm on Epoch plate reader.

[1] = molecular target: T2, Survivin (purified recombinant Survivin protein) (human, UniProt O15392 1-140, limits assumed, biotinylated on the Avi-tag by BirA (antigens for selection and ELISA)); test: multipoint protein ELISA: 50 nM immobilised target, 3-fold serial dilutions of purified Fab, protein L-HRP, sigmoidal fit
T2 construct: also called Baculoviral IAP repeat-containing protein 5; BIRC5
T2 sequence (O15392 1-140 limits assumed): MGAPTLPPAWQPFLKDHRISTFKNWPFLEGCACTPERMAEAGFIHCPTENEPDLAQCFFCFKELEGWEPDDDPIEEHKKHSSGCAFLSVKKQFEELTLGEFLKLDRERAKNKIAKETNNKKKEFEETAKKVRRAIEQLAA
Protocol: Protein based multipoint ELISA was performed to estimate the affinity of the generated unique Fabs to their cognate antigens. A fixed concentration of the immobilized target (50 nM) on ELISA plate was incubated with 3-fold serial dilutions of the purified Fabs starting from […] for 15 min. The plates were washed and the bound antigen-Fab complexes were incubated with H1RP-conjugated protein L (1:5000 dilution in PBST). As with phage ELISA, the plates were again washed, developed with TMB substrate and quenched with 1.0 M HCl, and absorbance (A450) was determined. To determine the affinity, the data were fitted in a non-linear sigmoidal function with variable slope in GraphPad PRISM and EC50 value was calculated (FIG. 2).

Bor-C = molecular target: T3, Bor-C (Biotinylated Avi tag, held on neutravidin; not in the letters); test: single point protein ELISA, 50 nM immobilised target
T3 construct: also called Bor C: 207-280; Borealin C-terminal domain; not shown: Avi tag, and any purification tag or linker
T3 chain: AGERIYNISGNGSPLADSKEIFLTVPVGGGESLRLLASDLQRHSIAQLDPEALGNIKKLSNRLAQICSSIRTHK
Protocol: as §1

[2] = molecular target: T4, cell surface survivin on cancer cells (human, UniProt O15392 1-142); test: flow cytometry of live cells, 200 nM Fab, anti-human F(ab')2-A647 secondary
T4 construct: whole, on cells
T4 sequence (O15392 whole entry): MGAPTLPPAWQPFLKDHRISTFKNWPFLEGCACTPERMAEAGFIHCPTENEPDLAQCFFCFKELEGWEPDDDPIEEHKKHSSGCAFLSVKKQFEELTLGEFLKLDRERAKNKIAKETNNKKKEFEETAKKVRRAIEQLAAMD
Protocol: Human or murine tumor cells were trypsinized, washed and resuspended in Flow buffer (1×PBS supplemented with 2% FBS) and added to a 96-well plate (#3799, Costar). 200 nM primary CPC Fab was mixed with 0.5M cells and incubated at 37 C for 20 min. […] Samples were analyzed by flow cytometry using CytoFLEX (Beckman Coulter) and mean fluorescence intensity (MFI) data was extracted using the FlowJo software (FIG. 5A-E, FIG. 6). Human peripheral blood mononuclear cells (PBMCs) derived from a single patient were used as a source of healthy human cells. PBMCs were counted, split and spun down 400×g 5 min. Cells were resuspended in Flow buffer (1×PBS supplemented with 2% FBS) and pre-incubated with TruStain FcX (1:20, Biolegend 422302) for 10 min at 37 C, followed by 200 nM primary Fab incubation at 37 for 20 min. […] Mean fluorescence intensity (MFI) data was extracted using the FlowJo software (FIG. 5F).

B1: SUR-N-37 (Fab, V domains shown)
VH: EVQLVESGGGLVQPGGSLRLSCAASGFNVSYSSIHWVRQAPGKGLEWVASISSYYGSTSYADSVKGRFTISADTSKNTAYLQMNSLRAEDTAVYYCARSTYYSWYPYYYAMWHQHGMDYWGQGTLVTVSS
VL: DIQMTQSPSSLSASVGDRVTITCRASQSVSSAVAWYQQKPGKAPKLLIYSASSLYSGVPSRFSGSRSGTDFTLTISSLQPEDFATYYCQQSPMYSLITFGQGTKVEIKR
notes: also called SUR-N-37 Fab
- binding result (Bor-N): no binding (tested: 200 nM)
- EC50 [1]: 1 nM

B2: SUR-N-45 Fab (Fab, V domains shown)
VH: EVQLVESGGGLVQPGGSLRLSCAASGFNLSSSSIHWVRQAPGKGLEWVASISSYSGYTYYADSVKGRFTISADTSKNTAYLQMNSLRAEDTAVYYCARPHWNSSYFSGWAMDYWGQGTLVTVSS
VL: B1 VL with S91W, P92S, M93S, Y94K, L96P
- binding result (Bor-N): no binding (tested: 200 nM)
- binding result (Bor-C): no binding (tested: 200 nM)
- binding result [2]: binds
